# Test results as given in the RNAGym collection of RNA variant scans (doi:10.1073/pnas.2313332121).
# This sample holds only a part of the variants without activity.
# B1: TPR 5TU (parent)
# chain: GGAUCUUCUCGAUCUAACAAAAAAGACAAAUCUGCCACAAAGCUUGAGAGCAUCUUCGGAUGCAGAGGCGGCAGCCUUCGGUGGCGCGAUAGCGCCAACGUUCUCAACUAUGACACGCAAAACGCGUGCUCCGUUGAAUGGAGUUUAUCAUG
# Variants of: B1
# Assay: polymerase ribozyme fitness, log enrichment relative to wild type (log ratio); higher = more active; in vitro selection for triplet polymerase activity
# How it was run: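 The heterodimeric triplet polymerase ribozyme's subunits were each mutagenized into PCR-built libraries and transcribed. Every library was selected once, in triplicate, by annealing with a biotinylated primer, the partner subunit and triplets, incubating frozen at −7 °C, gel-excising extended constructs, capturing on streptavidin beads and running RT-PCR. Input and output libraries were Illumina-sequenced, with genotypes kept only at ≥10 input reads and ≥1 read per output. Fitness, from inverse-variance-weighted replicate averages, is the base-2 logarithm of genotype enrichment over wild-type enrichment.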
row,Variant,polymerase ribozyme fitness (log ratio)
1,C93U A120G,-0.649
2,C87A G88C C96U C118U U146C,≤ -4.2
3,C85U U146C,-0.574
4,C93U A119U A121C,-1.6
5,C87U U102G,-3.08
6,C87U A120C G152U,-3.33
7,C85U A97C G124U,0.338
8,C87G C114U,-4.08
9,C87A U135C,≤ -4.2
10,C85U A119U A138C U145A,-3.86
11,G92A C103G,-4
12,G92A C103A,-3.9
13,G86U C149U,-2.48
14,G86U C96U,-2.68
15,A91U A121U U144A,≤ -4.2
16,C93G C103G C118A G136U U146C,≤ -4.2
17,C87U C125G,-1.53
18,C87U C125U,-2.13
19,C85G G92C G128A,≤ -4.2
20,C87A G141C,≤ -4.2
21,C93G A138G,≤ -4.2
22,U90C G94U A120U G124U,≤ -4.2
23,C85U A107C C131U,-4.07
24,A89C U127A,-4.16

row,Variant,polymerase ribozyme fitness (log ratio)
1,G92U C105G C125U A137G,-3.35
2,C87G A91C A122G,≤ -4.2
3,G88A C105U,-3.72
4,C93U,-1.34
5,C93G,-3.35
6,C93A,-2.17
7,U90A A106C G128A,≤ -4.2
8,C85U A115C,-0.617
9,C85U G88A,-3.73
10,C93G A113U,-4.11
11,C85G C123U G141A,-0.441
12,G92U C125A,-1.82
13,C87U G92U A97U C99G,≤ -4.2
14,C93U A119U U127G,-2.59
15,G86U U144A,-3.12
16,C87G G88C G136A,≤ -4.2
17,C87U C96U U104C A107U G141U,≤ -4.2
18,G92C C95U,-0.22
19,C85U C123U U127C,-1.83
20,C85U A121C G141U,2.08
21,C85U C87U A150G,-1.59
22,C87A G128A U146C U148A,≤ -4.2
23,C87U A91U C96U,≤ -4.2
24,C85G G128A,≤ -4.2

row,Variant,polymerase ribozyme fitness (log ratio)
1,G86U A121U,-0.702
2,A91G A147U,-1.52
3,C87A U90G C99G,≤ -4.2
4,C93A U109G C123G,-3.37
5,G88A G126A,-3.7
6,A91U C125A,-3.87
7,G86U A97U,-1.74
8,G88U C96G A106U G143A,≤ -4.2
9,C93U G124A C131U U139G,0.429
10,U90A A119U G126A,≤ -4.2
11,C87U G88C,-3.83
12,C87U A142U,-0.783
13,C93A A97G A113G G124U,-4.12
14,G92U C99G,-1.57
15,C87A C95U A107U,≤ -4.2
16,C85U A107U A138G A142G,≤ -4.2
17,C87U U102C A115C,-2.7
18,C87U A113U C116U,-1.99
19,U90A C95A,≤ -4.2
20,G92C U127G,-3.67
21,C87U C93G,-4.18
22,C87U C93A,-3.93
23,G92A C95A,-3.27
24,C85U A89U,-0.431

row,Variant,polymerase ribozyme fitness (log ratio)
1,C93A A98U,-0.828
2,C93G C105U A137G,-4.06
3,C87U G136U,-2.59
4,A89G A142C,-1.45
5,G88C C131G U151G,≤ -4.2
6,C85G C116U U144G,-0.537
7,C85U A97U,-2.44
8,G86U U101G,-2.21
9,G92U C103G,-3.77
10,C93A G133C,-4.09
11,A91G A106G A150U,-0.616
12,C85U C93U,-1.93
13,C85U C93A,-2.72
14,G88U G92C G117U,-3.57
15,G92U G136A,0.353
16,C87A A119G A137G,≤ -4.2
17,A91U U111G U127C,≤ -4.2
18,C85U C105G A142U,-2.01
19,C87G A115U C116G,-3.97
20,C93A G141U,-0.625
21,G92A A98U U111A C123U U144A A150C,≤ -4.2
22,C93G A98C A120U,-3.94
23,G86C A97U A98U,-3.05
24,G86U A97U C132A,≤ -4.2

row,Variant,polymerase ribozyme fitness (log ratio)
1,C87A C93G,≤ -4.2
2,A89U G92U A121C G140U,-3.5
3,C85U G136A,0.767
4,G88C G100A,≤ -4.2
5,C85U U101C,-0.749
6,C87A G126U,≤ -4.2
7,C87A G126C,-4.16
8,C93U C103U,-1.61
9,C93U C103G,-3.63
10,G92U C116G C132G,-3.8
11,G92C C108G G112C C123A G136C A137C A142G,≤ -4.2
12,C85U G140U U146C,-2.87
13,C93U C116G,-2.2
14,C85G G141U,-0.649
15,G86U G152U,≤ -4.2
16,U90G G141U,≤ -4.2
17,A91G C105U,-1.66
18,C93A A122U,-2.45
19,G86U C99U C103G C131G,≤ -4.2
20,C87U A113U A122G G136U U144C,-3.67
21,G86C C93G C105U,0.694
22,C93G A121C,-3.39
23,G86A A89G,-3.55
24,C93U A122G C129U U146G,-3.83

row,Variant,polymerase ribozyme fitness (log ratio)
1,G92A C103G C129G U134A,≤ -4.2
2,A91C U109C,≤ -4.2
3,C85U U90C C103A,≤ -4.2
4,C93U A121U,-0.267
5,G86A C93G C99G U146A,-3.32
6,A89G A120C,-1.41
7,G92U G141C U146A,-0.994
8,G86C U135A,-3.03
9,G88A G94U U146C,-4.14
10,A89G G126C,0.0965
11,C85U C116U A147U,0.541
12,A91G C95U,-2.75
13,G86C A137G,-3.37
14,A91G U144C,-2.47
15,A89G A119C,-1.39
16,G88A C96U C108G,≤ -4.2
17,G86U A98C U101C,-0.908
18,C85U A120G A150C,-3.75
19,C85U G94U,0.0431
20,G92U A138U,-4.2
21,C87A,≤ -4.2
22,C87U,-0.596
23,G86A C87U,-3.65
24,G88C C105A G117C G141A A147U,≤ -4.2

row,Variant,polymerase ribozyme fitness (log ratio)
1,C87A A91C,≤ -4.2
2,A89G C95A A137C,-4.09
3,C87A U90C C105U,-3.59
4,A91C U102A C132U,-3.54
5,C87A A89C G124C U148A,≤ -4.2
6,A91G C96U,-3.04
7,A89G A98G C99G,-2.3
8,G88A A150C,≤ -4.2
9,C93A A121G U144A,-1.18
10,C93G G143U,-4.04
11,C87A A107G A110G A120G U139C G140A A147G,≤ -4.2
12,C85U C96A,-0.931
13,G92A A121U,-2.71
14,A89C U101C U146A,0.0757
15,G86U A89U,-2.62
16,C87U C99G U127A,≤ -4.2
17,G86U C116G,-1.04
18,G86U C116U,-1.03
19,C87G C132U,≤ -4.2
20,C85U C95A,-0.427
21,A91C G100U,≤ -4.2
22,G88A A97G U111G,≤ -4.2
23,G88A C93G C96A A110G C123G,≤ -4.2
